Measurements taken from the supplement of paper PMC9170038.

System: MS2 coat protein
Test: apparent KD of MS2 coat protein; designed switch direction (-1 OFF switch, 1 ON switch): -1; higher = weaker reporter binding
Method in brief: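 Designed RNA switches with common flanks were made on Illumina chips by stalled E. coli RNA polymerase. Titration with SNAP-549-labelled MS2 coat protein doubled from 0.7 or 1.5 nM up to 3 µM. Apparent KD is each design's median over clusters after curve-fitting normalised fluorescence.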

[1] = input ligand: microRNA oligo, concentration not stated
[2] = Eterna round: R95, input ligand: microRNA oligo, concentration not stated
[3] = Eterna round: R95, input ligand: FMN 200 uM
[4] = Eterna round: R95, input ligand: none

Sequence	apparent KD of MS2 coat protein (input ligand: FMN 200 uM) [nM]	apparent KD of MS2 coat protein (input ligand: none) [nM]	apparent KD of MS2 coat protein [2] [nM]	also measured
ACGAGGGUUACAGGAUAUGAAGCUAAAACGGCGUUAGAAGGGUAUACAGAGUUACAUGAGGAUCACCCAUGUUGUGACUUCGAA [AK ExNG1-V2-4] (Eterna round: R96, puzzle: Exclusion NG 1)				apparent KD of MS2 coat protein [1]: 29.4 nM
ACGAUGUUUGGAGGAUAUACAUGAGGAUCACCCAUGUGCGACCGAGUCCGCACUUCACCUCAGUGGUAGAAGGCCGAACAUCGA [Eternabot solution 12] (Eterna round: R96, puzzle: Exclusion NG 2)	97.9	255		apparent KD of MS2 coat protein [1]: 545 nM
ACGCAGAGAGGAUAUACAUGAGGAUCACCCAUGUAUAAACGCACUAACUCUCCUCACUGUAGAAGGCUCAUGCA [Larerige] (puzzle: Exclusion 3)			11.3	
ACGCCGCAAGGAUAUCGUAAAGCAGACAUGAGGAUCACCCAUGUGAUAUCAGAAAGGCCACGAGAAGGUGCACAAG [Tigeor] (puzzle: Exclusion 5)			20.3	apparent KD of MS2 coat protein [3]: 32.4 nM; apparent KD of MS2 coat protein [4]: 21.3 nM
ACGCGACAUGAGGAUCACCCAUGUGAGGAUAUGGCCUGUUUGGCGUGUGCUGGCUCUGUCAGAAGGCGCGUGGG [salish99_ex1_r4_040] (Eterna round: R97, puzzle: Exclusion 1)	141	90.4		
ACGCGCAUAGGAUAUGCCGACGGAGAACUCCAGUGACUUCAACAUGAGGAUCACCCAUGUAGAAGGAUGAUGCA [Eternabot (Original) Solution 32] (Eterna round: R97, puzzle: Exclusion 2)	16.8	14.8		
ACGCGUGAAGGAUAUACGCGGGCCCAAGCGGAUCACACCGCACAUGAGGAUCACCCAUGUAGAAGGUCACAAAA [r4x2dt1] (Eterna round: R97, puzzle: Exclusion 2)	169	23.5		
ACGCGUGGCUAGGAUAUGCAGCAAUCUAGCCAGGCAGAAGGAGCCACAUGAGGAUCACCCAUGUGGUGAUCCUC [eternacac ex6r4 sub2] (Eterna round: R97, puzzle: Exclusion 6)	8.21	11.2		
ACGCGUUUAGGAUAUACGUGCCUUGACAGUCCUAUUGUGUUACAUGAGGAUCACCCAUGUAGAAGGAGGCCGCG [Eternabot (L1) Solution 79] (Eterna round: R97, puzzle: Exclusion 2)	19.4	20.2		
ACGGCAUAAGGAUAUGCAAGGUGCUGACUUCCUCCGUCAUUACAUGAGGAUCACCCAUGUAGAAGGUAUGUACC [Eternabot (Original) Solution 9] (Eterna round: R97, puzzle: Exclusion 2)	18.4	18.5		
ACGUAUAGAGGAUAUACUGAAUAUUACAUGAGGAUCACCCAUGUUCUUCAAAGUAUAUUUGUAGAAGGCUAAUGAA [EX-5 Malc#9] (puzzle: Exclusion 5)			10.2	apparent KD of MS2 coat protein [3]: 15.8 nM; apparent KD of MS2 coat protein [4]: 9.61 nM
ACGUAUAGAGGAUAUAGUGAAUAUUACAUGAGGAUCACCCAUGUUCUUCAAAGUAUAUUCCUAGAAGGCUAAUGAA [EX-5 Malc#11] (puzzle: Exclusion 5)			148	apparent KD of MS2 coat protein [3]: 537 nM; apparent KD of MS2 coat protein [4]: 171 nM
ACGUGAUAUCUGUCGGUGGACAUGAGGAUCACCCAUGUGAGCUUUUUGCUCGUCUUAUAACCCGAUGACAGACCUUC [Anorin] (puzzle: Sensor v3, turn-off variant 1)			266	apparent KD of MS2 coat protein [3]: 14.2 nM; apparent KD of MS2 coat protein [4]: 13 nM
ACGUGGUGAGGAUAUGCACAAUACAAGAGUGUCAGAUCCGGACAUGAGGAUCACCCAUGUAGAAGGCACCCAAU [Eternabot (Original) Solution 10] (Eterna round: R97, puzzle: Exclusion 2)	41	50.8		
ACUAAUAGAGGAUAUACAGUUUAUUACAUGAGGAUCACCCAUGUUCUUCAAUGUAUAUAAGUAGAAGGCUAUGGAA [EX-5 Malc#4] (puzzle: Exclusion 5)			56.9	
ACUAAUUGAGGAUAUACAAGAAUUAACAUGAGGAUCACCCAUGUUCUUAUUUGAAUUAAAGUAGAAGGCAGAAGAA [JR_Ex5_Sub063] (Eterna round: R97, puzzle: Exclusion 5)	16	28.9		
ACUAGAUGAGGAUAUACACAUUUUAGUGUUCCUCUAGAUUAACAUGAGGAUCACCCAUGUAGAAGGCAUCAUUU [Exclusion 2 - 10] (puzzle: Exclusion 2)			80.8	

Sequence	apparent KD of MS2 coat protein (input ligand: FMN 200 uM) [nM]	apparent KD of MS2 coat protein (input ligand: none) [nM]	apparent KD of MS2 coat protein [2] [nM]	also measured
ACUAGAUGAGGAUAUGCACAUUUUAGUGUUCCUCUAGAUUAACAUGAGGAUCACCCAUGUAGAAGGCGUCAAUU [Exclusion 2 - 12] (puzzle: Exclusion 2)			53.1	
ACUAGAUGAGGAUAUGCAUAUUUUCGUGUUCUUCUAGAUUAACAUGAGGAUCACCCAUGUAGAAGGCGUCAUUA [Exclusion 2 - 17] (puzzle: Exclusion 2)			16.6	
ACUAGAUGAGGAUAUGCAUAUUUUCGUGUUCUUCUAGAUUAACAUGAGGAUCACCCAUGUAGAAGGCGUCUGGC [Exclusion 2 - 20] (puzzle: Exclusion 2)			18	
ACUAGAUGAGGAUAUGCAUAUUUUCGUGUUCUUCUAGAUUAACAUGAGGAUCACCCAUGUAGAAGGCGUCUGGU [Exclusion 2 - 19] (puzzle: Exclusion 2)			29.7	
ACUAGAUGAGGAUAUGCAUAUUUUCGUGUUCUUCUAGGUUAACAUGAGGAUCACCCAUGUAGAAGGCGUCUGGA [Exclusion 2 - 21] (puzzle: Exclusion 2)			20	
ACUAGAUGAGGAUAUGCAUGUUUUCAUGUUCUUCUAGAUUAACAUGAGGAUCACCCAUGUAGAAGGCGUCUUUA [Exclusion 2 - 32] (puzzle: Exclusion 2)			18.9	
ACUAGAUGAGGAUAUGCAUGUUUUCGUGUUCUUCUAGAUUAACAUGAGGAUCACCCAUGUAGAAGGCGUCAUUU [Exclusion 2 - 27] (puzzle: Exclusion 2)			76.9	
ACUAGUCAUGAGGAUAUGCGAGCCAACGGGCGAGCAGAAGGCGUGACAUGAGGAUCACCCAUGUCAGUUCGCGA [eternacac ex6r4 sub31] (Eterna round: R97, puzzle: Exclusion 6)	21.9	17.4		
ACUCAGUGAGGAUAUCGCCAGAGAGCCGUGACGGCUCCUGAUGAGAAGGCACAUGAGGAUCACCCAUGUAAGCA [EX4 C.7] (Eterna round: R97, puzzle: Exclusion 4)	204	134		
ACUCCUGAUGUUAGGAUAUCAGGCGCGACAGCGGAUGAGAAGGAACAUGAGGAUCACCCAUGUGGGCUUAUCAA [Reedonso] (Eterna round: R97, puzzle: Brourd's mod of Exclusion 4)	325	81.6		
ACUCGUGCCCGAGGAUAUUACAGCAACCUGGCUUAAGAAGGCGGGACAUGAGGAUCACCCAUGUUCUGCGCAUCGGUCGUCAGA [Anzatete] (Eterna round: R96, puzzle: Exclusion NG 1)	18.8	13		apparent KD of MS2 coat protein [1]: 9.36 nM
ACUGGGAGAGGAUAUACAUGAGGAUCACCCAUGUGAAAUUAUAGUGAGGAAAUGAAAAGUAGAAGGCUCUUAGA [Mod of Mat 14 - Jieux - Exclusion 3] (Eterna round: R97, puzzle: Exclusion 3)	151	68.4		
ACUGGUGCAGGAUAUACAUGAGGAUCACCCAUGUGAUCAGCAGUCCUCGGACUGCAAUGUAGAAGGGCACCAGU [E3/1-D1] (Eterna round: R97, puzzle: Exclusion 3)	105	804		
ACUGUUCGAGGAUAUACGAUCGUGCUUCGGCACGUAAGAUCACAUGAGGAUCACCCAUGUAGAAGGCGAACAGU [Mod 5 - Jieux - Exclusion 2] (Eterna round: R97, puzzle: Exclusion 2)	292	38.6		
ACUUACUGAGGAUAUACAUAGAUUUACAUGAGGAUCACCCAUGUUCCUCUAUGUAUAUAUGUAGAAGGCAGAAGUG [Mat - Exclusion 5 - JL Mod - D36] (Eterna round: R97, puzzle: Exclusion 5)	137	33.3		
ACUUACUGAGGAUAUGCGUGGAUAAACAUGAGGAUCACCCAUGUUCCUAUAAGUAUGUAUGUAGAAGGCAGAAGAA [JR_Ex5_Sub075] (Eterna round: R97, puzzle: Exclusion 5)	60.5	130		
ACUUAUAGAGGAUAUACAGUUUAUUACAUGAGGAUCACCCAUGUUCUUCAAUGUCCUGAAGUAGAAGGCUAAGGAA [Ex5 Malc#5 mod4] (Eterna round: R97, puzzle: Exclusion 5)	19.7	16.3		
